Laboratory results as given in paper PMC4613674.

Target: MBP–Cas5–Cas7 complex (Methanothermobacter thermautotrophicus) (Methanothermobacter thermautotrophicus ΔH)
Experiment: pull-down; MBP–Cas5–Cas7 (20 μg) held on amylose resin, His6–Cas8′ (20 μg) added, final volume 500 μl, 2–4 h at 4°C; 20 mM Tris/HCl pH 8.0, 150 mM NaCl, 1 mM EDTA, 1% Tween; western blots with anti-His6 and anti-MBP; with or without pre-incubation of Cas5–Cas7 with crRNA1

“N-terminal hexahistidine-tagged Mth Cas8′ (natural protein)” gave a percent of input bound of less than 10%.
